This is an account of results in publication PMC2148171 (The Journal of Cell Biology, 1998).

Data set [1] deals with the molecule itself. The data set can be described thus: SEC + other: sucrose density gradient centrifugation.
Data set [2] concerns the molecule itself. The description is as above. This is another data set of the same source.

Like-named read-outs stand apart in the source and are kept apart here.

B1: baculovirus produced 6x histidine-tagged recombinant CHO cell MCAK (mitotic centromere-associated kinesin) (natural protein, Chinese hamster (CHO cell MCAK), UniProt P70096 1-718, looked up)
chain: MESLPARLFPGLSIKIQRSNGLIHSANISTVNVEKSCVSVEWIEGGNTKGKEIDFDDVAAINPELLQLLPLHPKDNLPLQENVTVPKQKRRSVNSKIPAPKEGLRSRSTRMSTVPEVRIATQENEMEVELPVATNSRKQFSVATGLPRPSCPAMTELPLSMVSEEAEEQVHPTRSTSSANPARRKSCIVKEMEKMKNKREEKRAQNSEIRIKRAQEYDSSFPNWEFARMIKEFRVTIECHPLTLTDPTEEHRICVCVRKRPLNKQELAKKEIDVISVPSKCLLFVHEPKLKVDLTKYLENQAFCFDFAFDETASNEVVYRFTARPLVQTIFEGGKATCFAYGQTGSGKTHTMGGDLSGKSQNTSKGIYAMASRDVFLLKSQPRYRNLNLEVYVTFFEIYNGKVFDLLNKKAKLRVLEDSKQQVQVVGLQEYLVNCADDVIKMLNMGSACRTSGQTFANSNSSRSHACFQILLRAKGRLHGKFSLVDLAGNERGADTSSADRQTRMEGAEINKSLLALKECIRALGQNKAHTPFRESKLTQVLRDSFIGENSRTCMIAMISPGISSCEYTLNTLRYADRVKELSPHSGLSGEQPIQMETEEMEASSNGTSLAVNFKEEEELSSQMSSFNEAMSQIRELEERAMEELREIIQQGPGWLELSEMTDQPDYDLETFVNKAESALTQQTKHFSALREVIKALRVAMQLEEQASKQMNSKKRHQ
As to B1, the “stoichiometry N” value in data set [1] is 2.

B2: MCAK (mitotic centromere-associated kinesin) in CHO cells (natural protein, Chinese hamster (endogenous in CHO-K1), UniProt P70096 1-718, looked up)
chain: B1 chain
B2: the “stoichiometry N” value in data set [2] amounted to 2.

The term stoichiometry N denotes a count of units in the complex or per binding partner.
